Experimental data from US10322164B2, “Modulation of cellular localization of cyclin C” (Rowan University, priority 2014, dated 2019).

What was measured:
[1] = test system: Drp1 phosphorylation at the activating serine (Ser616); experiment: Drp1 Ser616 phosphorylation in Hela cells subjected to H2O2; type: cell-based, human
Description: (§1) For phosphorylation, both inhibitory and stimulatory modifications have been identified. For example, cyclin B-Cdk1 phosphorylation at the G2/M boundary stimulates Drp1 activity to induce fission to promote mitochondrial partitioning during mitosis. This modification is clearly observed in cells arrested at the G2/M boundary following addition of the microtubule destabilizing agent nocodazole. Therefore, one possibility is that cytoplasmic cyclin C is now free to interact with another Cdk to modify Drp1 and induce fission. However, no increase was found in Drp1 phosphorylation at the activating serine (Ser616) in Hela cells subjected to H2O2 or in permeabilized CCNC^−/−MEF cells treated with GST-cyclin C. […] It is possible that the accelerated fission in these experiments results in de-phosphorylation of Ser616 helping attenuate mitochondrial fragmentation.

HeLa cells = experiment: Cyclin C localization in stressed HeLa cells; type: cell-based, human
Procedure: (FIG. 14A) cyclin C localization in H2O2 stressed cultures as indicated. See (FIG. 14B) for enlarged images for 6 hr+H2O2 cells. (FIG. 14C) Knockdown efficiency of cyclin C by siRNA. con=scrambled siRNA control. Annexin V studies in the cultures described in (FIG. 14D). Graph illustrates % annexin V positive cells for cells with and without Cyclin C siRNA knockdown in the presence or absence of H2O2. Error bars=s.e.m. Three independent cultures were assayed for each sample.
(§2) Cells were cultured on coverslips then fixed with 4% paraformaldehyde for 20 min, permeabilized with 0.2% Triton X-100 for 15 min, blocked with 2% BSA, and incubated with antibodies as indicated. The cells were mounted with DAPI-containing medium (Vector Labs) and the images were acquired with Nikon Eclipse 90i microscope equipped with a Retiga Exi CCD camera and NIS software for data analysis. DAPI (5 μg/ml) and Mitotracker Red (5 μg/ml) staining was used to identify nuclear and mitochondrial subcellular localization.
(§3) To evaluate the role of cyclin C in PCD execution, CCNC specific siRNAs were used to knockdown cyclin C. The knockdown efficiency was about 70% compared to control (FIG. 14C).

MCF-10A cells = experiment: Cyclin C localization and mitochondrial fission in stressed MCF-10A cells; type: cell-based, human; conditions: H2O2 0.4 mM for 4 h
Procedure: (§4) (FIG. 15A) cyclin C localization was followed in MCF-7 or MCF-10A cells exposed to H2O2 (0.4 mM) for 4 h. (FIG. 15B) cyclin C levels were monitored by Western blot in MCF-7 cells treated with (+) or without (−) CCNC specific siRNAs. β-tubulin levels were followed as a loading control. (FIG. 15C) Viability was measured (viable stain assays) in the cell lines described in (FIG. 15B) following 4 h H2O2 exposure as indicated.
as §2, §3

[2] = test system: MCF-7 breast cancer cell line; experiment: Cyclin C localization in stressed MCF-7 cells; type: cell-based, human; conditions: H2O2 0.4 mM for 4 h
Procedure: as §4, §2, §3

[3] = target: T1, cyclin C-Med13 interaction (Mus musculus, UniProt Q5SWW4); experiment: Cyclin C localization and mitochondrial morphology in MEF cells incubated with TAT-HAD or control peptide (indirect immunofluorescence); type: cell-based
T1 construct: endogenous in cells; host or cells: wild type (CCNC+/+) mouse embryonic fibroblasts, SV40 T antigen immortalized
Procedure: The amino terminal sequences of cyclin C from the indicated organisms. Homologies are shaded. Boxed region is targeted using the HIV TAT basic domain fused to the 19 amino acid (aa) peptide indicated by the line above the sequence. (FIG. 11B) Representative images of MEF cells incubated with TAT-HAD peptide or control (25 μM) for three hours then fixed and stained for the nucleus (DAPI), mitochondria (MitoTracker Red) and cyclin C (α-cyclin C). Arrows indicate regions of interaction between cyclin C and mitochondria.
as §2
CCNC^+/+ and CCNC^−/− MEF cells were treated with 0.4 mM H2O2 for 4 hrs. Mitochondrial morphology was monitored by MitoTracker Red staining. The cells were imaged with the 60× objective on the Nikon Eclipse C1Ti confocal microscope equipped with a Ds-Qi1MC CCD camera. The TAT-HAD peptide was added to log phase unstressed wild type MEF cultures for 3 h prior to image acquisition.
A highly conserved region of cyclin C has been identified [Cooper, K. F. and R. Strich, Functional analysis of the Ume3p/Srb11p-RNA polymerase II holoenzyme interaction. Gene Expr, 1999. 8(1): p. 43-57; Cooper, K. F., S. Khakhina, S. K. Kim, and R. Strich, Stress-Induced Nuclear-to-Cytoplasmic Translocation of Cyclin C Promotes Mitochondrial Fission in Yeast, Dev Cell, 2014. 28: p. 161-173.], boxed, FIG. 11A) that is responsible for Med13 binding in yeast. […]

[4] = test system: Drp1 phosphorylation at the activating serine (Ser616); experiment: Drp1 Ser616 phosphorylation in permeabilized CCNC-/- MEF cells treated with GST-cyclin C; type: cell-based, mouse
Description: as §1

[5] = test system: permeabilized CCNC^−/−MEF cells; experiment: Mitochondrial fragmentation in digitonin-permeabilized CCNC-/- MEF cells after adding GST fusion proteins (live confocal microscopy); type: cell-based, mouse
Procedure: To examine whether cyclin C was sufficient to induce fission or if additional stress-specific signals were required, permeabilized CCNC^−/−MEF cells were used and E. coli purified human GST-cyclin C (Hs GST-cyclin C). The CCNC^−/−null cell line was employed to avoid any contribution from endogenous cyclin C. GST-cyclin C or GST (˜4 nM) was added to digitonin treated cells and mitochondrial morphology was monitored in living cells by confocal microscopy. Images were collected for 18 min at 2 min increments. […] Deconvolved images reveled little detectable changes in mitochondrial morphology in the GST treated cultures up to 18 min (9.3%). […] To determine if this function is conserved, the activity of the yeast cyclin C fused to GST (GST-cyclin C Sc) was also examined. […] To determine if the quantity of GST-cyclin C added was rate limiting, this experiment was repeated with twice the GST-cyclin C Hs concentration as before.

[6] = permeabilized CCNC-/- MEF cells

T1 sequence (Q5SWW4 whole entry): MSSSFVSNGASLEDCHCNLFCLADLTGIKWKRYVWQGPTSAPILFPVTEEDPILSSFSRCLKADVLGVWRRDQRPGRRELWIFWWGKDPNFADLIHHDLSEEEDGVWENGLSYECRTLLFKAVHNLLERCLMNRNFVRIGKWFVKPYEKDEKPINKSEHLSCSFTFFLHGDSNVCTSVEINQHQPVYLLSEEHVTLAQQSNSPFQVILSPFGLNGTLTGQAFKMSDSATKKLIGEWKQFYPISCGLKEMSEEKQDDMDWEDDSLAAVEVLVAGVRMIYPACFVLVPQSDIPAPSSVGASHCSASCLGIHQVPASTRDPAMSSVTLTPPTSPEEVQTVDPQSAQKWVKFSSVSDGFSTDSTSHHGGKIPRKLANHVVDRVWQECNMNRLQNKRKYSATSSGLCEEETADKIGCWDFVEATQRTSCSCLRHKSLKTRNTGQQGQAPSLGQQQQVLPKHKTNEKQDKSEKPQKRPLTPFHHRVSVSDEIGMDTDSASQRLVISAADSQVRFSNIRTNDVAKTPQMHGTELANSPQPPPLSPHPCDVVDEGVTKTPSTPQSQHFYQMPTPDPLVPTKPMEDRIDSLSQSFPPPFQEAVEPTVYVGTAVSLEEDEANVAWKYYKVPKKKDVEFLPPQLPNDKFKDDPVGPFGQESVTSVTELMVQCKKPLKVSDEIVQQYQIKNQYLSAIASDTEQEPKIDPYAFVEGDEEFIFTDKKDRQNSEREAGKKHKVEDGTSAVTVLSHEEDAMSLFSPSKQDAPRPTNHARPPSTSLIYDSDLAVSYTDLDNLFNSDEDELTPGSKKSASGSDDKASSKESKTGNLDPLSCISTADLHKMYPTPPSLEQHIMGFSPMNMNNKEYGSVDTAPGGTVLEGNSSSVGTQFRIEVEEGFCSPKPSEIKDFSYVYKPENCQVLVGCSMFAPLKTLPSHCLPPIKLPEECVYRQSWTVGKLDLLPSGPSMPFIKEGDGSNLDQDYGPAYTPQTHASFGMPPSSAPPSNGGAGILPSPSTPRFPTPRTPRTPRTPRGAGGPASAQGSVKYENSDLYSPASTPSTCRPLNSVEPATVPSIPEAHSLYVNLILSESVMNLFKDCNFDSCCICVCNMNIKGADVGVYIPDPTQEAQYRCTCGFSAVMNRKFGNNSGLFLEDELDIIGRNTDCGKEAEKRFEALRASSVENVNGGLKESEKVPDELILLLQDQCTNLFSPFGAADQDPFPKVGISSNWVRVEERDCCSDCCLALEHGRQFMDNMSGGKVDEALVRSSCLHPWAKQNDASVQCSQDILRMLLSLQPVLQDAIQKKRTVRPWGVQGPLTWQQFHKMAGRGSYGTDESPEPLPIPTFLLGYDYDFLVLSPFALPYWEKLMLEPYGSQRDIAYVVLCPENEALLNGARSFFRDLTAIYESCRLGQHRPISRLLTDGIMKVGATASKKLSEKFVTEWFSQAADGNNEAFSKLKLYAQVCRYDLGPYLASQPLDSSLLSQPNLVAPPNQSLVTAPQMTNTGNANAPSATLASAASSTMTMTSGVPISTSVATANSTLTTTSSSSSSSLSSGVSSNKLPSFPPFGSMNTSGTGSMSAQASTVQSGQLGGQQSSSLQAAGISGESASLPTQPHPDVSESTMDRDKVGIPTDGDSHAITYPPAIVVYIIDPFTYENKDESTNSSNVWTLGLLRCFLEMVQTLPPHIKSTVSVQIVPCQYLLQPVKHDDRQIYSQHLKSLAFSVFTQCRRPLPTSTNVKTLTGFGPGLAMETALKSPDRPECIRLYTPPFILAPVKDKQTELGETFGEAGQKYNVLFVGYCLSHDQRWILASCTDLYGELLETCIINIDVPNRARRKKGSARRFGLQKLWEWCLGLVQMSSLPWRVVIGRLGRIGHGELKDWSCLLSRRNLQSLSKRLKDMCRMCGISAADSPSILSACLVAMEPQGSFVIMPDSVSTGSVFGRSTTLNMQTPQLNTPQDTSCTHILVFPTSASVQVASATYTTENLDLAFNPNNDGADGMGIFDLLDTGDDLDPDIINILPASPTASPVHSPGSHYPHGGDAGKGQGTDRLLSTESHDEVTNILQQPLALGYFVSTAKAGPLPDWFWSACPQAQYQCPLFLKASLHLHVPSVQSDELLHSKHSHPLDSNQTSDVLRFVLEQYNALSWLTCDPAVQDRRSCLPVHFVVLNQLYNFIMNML

Molecule: OO [H2O2]
- Drp1 phosphorylation at Ser616 [1]: no increase
- cyclin C localization (HeLa cells): translocated from the nucleus to the cytoplasm
- cyclin C relocalization and mitochondrial fission (MCF-10A cells): normal cyclin C relocalization and mitochondrial fission
- cyclin C localization [2]: remained nuclear

Molecule: N.N.[Cl][Pt][Cl] [cisplatin]
- cyclin C localization [2]: remained nuclear

Molecule: YGRKKRRQRRRWILDKQDLLKERQKDL (SEQ ID NO:6) (YGRKKRRQRRRWILDKQDLLKERQKDLKFL) [TAT-HAD peptide, HIV TAT basic domain fused to the cyclin C holoenzyme association domain (HAD) peptide]
- time within which the translocation/fragmentation phenotype was lost [3]: ≤ 24 h
- cyclin C localization ([3]; peptide 25 μM, three hours): nuclear to cytoplasmic cyclin C translocation
- mitochondrial morphology ([3]; peptide 25 μM, three hours, MitoTracker Red): abnormal fragmented morphology

B1: GST-cyclin C: E. coli purified human GST-cyclin C (protein, UniProt P24863 1-283, looked up)
Cyclin-C: MAGNFWQSSHYLQWILDKQDLLKERQKDLKFLSEEEYWKLQIFFTNVIQALGEHLKLRQQVIATATVYFKRFYARYSLKSIDPVLMAPTCVFLASKVEEFGVVSNTRLIAAATSVLKTRFSYAFPKEFPYRMNHILECEFYLLELMDCCLIVYHPYRPLLQYVQDMGQEDMLLPLAWRIVNDTYRTDLCLLYPPFMIALACLHVACVVQQKDARQWFAELSVDMEKILEIIRVILKLYEQWKNFDERKEMATILSKMPKPKPPPNSEGEQGPNGSQNSSYSQS
modifications: GST tag
- Drp1 phosphorylation at Ser616 [4, 6]: no increase
- quantitation of the Ser616 phosphorylation signal ([4]; permeabilized cells): reduced
- time to total mitochondrial fragmentation ([5]; twice the GST-cyclin C Hs concentration): ≤ 8 min
- time at which significant mitochondrial fragmentation began ([5]; ~4 nM protein): ≤ 10 min
- percentage of culture exhibiting fragmented mitochondria by 18 min ([5]; ~4 nM protein, digitonin treated cells, 8-10% fragmented prior to treatment): 94%

B2: GST-cyclin C Sc: yeast cyclin C fused to GST (protein, UniProt P47821 1-323, looked up)
RNA polymerase II holoenzyme …: MSGSFWTSTQRHHWQYTKASLAKERQKLWLLECQLFPQGLNIVMDSKQNGIEQSITKNIPITHRDLHYDKDYNLRIYCYFLIMKLGRRLNIRQYALATAHIYLSRFLIKASVREINLYMLVTTCVYLACKVEECPQYIRTLVSEARTLWPEFIPPDPTKVTEFEFYLLEELESYLIVHHPYQSLKQIVQVLKQPPFQITLSSDDLQNCWSLINDSYINDVHLLYPPHIIAVACLFITISIHGKPTKGSSLASAASEAIRDPKNSSSPVQIAFNRFMAESLVDLEEVMDTIQEQITLYDHWDKYHEQWIKFLLHTLYLRPASAI
modifications: GST tag
- efficiency of inducing mitochondrial fission compared with human cyclin C [5, 6]: as efficient inducing mitochondrial fission as the human cyclin C
